From the supplement of paper PMC7125110
± gives the standard error. Variants at the floor of the assay were thinned out.

B1: glmS ribozyme (parent)
chain: AUAAAAGCGCCAGAACUACAGAAAUGUAGUUGACGAGGAGGAGGUUUAUCGAAUUUUCGGCGGAUGCCUCCAAA

Variants of: B1
Experiment: self-cleavage kobs at 2500 uM GlcN6P; higher = faster cleavage; RNA array
Conditions: with glucosamine-6-phosphate
Summary of the method: (§1)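 Weighted Michaelis–Menten fits across concentrations supplied kcat and KM, based on kobs from one- or two-exponential decay fits to normalised per-tile medians. The data came from barcoded ribozyme variants transcribed in situ by E. coli RNA polymerase on sequenced MiSeq chips and tracked at 37 °C by a hybridised Cy3 probe. Glucosamine-6-phosphate (40 μM to 10 mM) in HEPES/KCl/Mg(OAc)2 buffer was flowed in.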

Variant | self-cleavage kobs at 2500 uM GlcN6P [s⁻¹]
C8U A12U A48U G62C U65A | < 1e-05
C8A A33C A42G U65G | < 1e-05
U46G U49G C50U A52G | < 1e-05
A42U U56A U69G | 0.00299 ± 0.00059
A12U A33U G40U | 3.71e-05 ± 1.4e-05
C11U C34A G44A | < 1e-05
C34G G35C G66A | < 1e-05
G38U U55A G62A U69G | 0.0012 ± 0.00058
G7C U46A A52C | < 1e-05
A12C C16U U31G G41U G43U | < 1e-05
C10U G40A G44C C70A | < 1e-05
G43C A53U C58G A64G | < 1e-05
A12U A48U G51C G60U | < 1e-05
C34A G37U A39U U57C C67A | < 1e-05
G38C U46G C68G | < 1e-05
U47C U56A A64G | 0.000616 ± 0.00019
G7U G9A C67A | < 1e-05
A15G G38U A52U | < 1e-05
C16G A39C C61U G63C | < 1e-05
C10U C58A C71U | < 1e-05
U30C G40A G43A C68A | < 1e-05

Variant | self-cleavage kobs at 2500 uM GlcN6P [s⁻¹]
A12U C16U G43C G62C C70U | < 1e-05
G7C A14U G32U A36G G43C | < 1e-05
A6U A14G U69G | 0.000146 ± 3.5e-05
C16A A39G U69G | 0.000118 ± 3.8e-05
A6U G9A A42C | < 1e-05
C11U A12C G32A G41A C68A | < 1e-05
G13C C34A C67U | < 1e-05
A14C U31G A39G G66U | 0.00126 ± 0.00036
U55G C58G G60U | < 1e-05
C8A C58A G59C | < 1e-05
A15U G43U A53U C68U | 8.35e-05 ± 3.5e-05
C34G U47C G66A | < 1e-05
G9U G29U U31A U46A | < 1e-05
C8U C11U U30A A52C U69G | < 1e-05
G32U A48U C67U | < 1e-05
A15U G44A G51A A53U | < 1e-05
G7U U46G A48U | < 1e-05
G38U U65A C70G | 0.000107 ± 3.6e-05
G9A G13U U57C | < 1e-05
A14C U54G C58G C68U | 4.09e-05 ± 1.3e-05
A6G G32C C67U C71G | < 1e-05

Variant | self-cleavage kobs at 2500 uM GlcN6P [s⁻¹]
C11G G13U G29C | < 1e-05
U31A A52U | 2.52e-05 ± 1.1e-05
A14C C16U G43C | < 1e-05
G35U U49C C50U C58G C61U | < 1e-05
G9U A15C C68U | < 1e-05
G7U U31C G32C G35C A36C C71U | < 1e-05
C11U C16U A53C C68A C70G | < 1e-05
C34A G35C A39G G44U C67A C71G | < 1e-05
C11A U56A C67G | 5.5e-05 ± 1.8e-05
G35A A52U A53G C70U | < 1e-05
G51A A53C G62C | < 1e-05
A12U U47G U65G | 0.00179 ± 0.0004
G9C A15C G44A G60U C61G | < 1e-05
C8A G40C C67A | < 1e-05
U45A U46A | 0.0043 ± 0.0021
C34A A42U U47A | < 1e-05
C8A G41C C58U | < 1e-05
A14G U45G C71U | 0.0021 ± 0.0006
G7C A36G G37C U56A G66A | < 1e-05
G40A U65C | 0.000394 ± 0.00015
A12G G35U C67A | < 1e-05

Variant | self-cleavage kobs at 2500 uM GlcN6P [s⁻¹]
U45G C50U U56G G59C | < 1e-05
G62U C68U C71A | < 1e-05
U56G C58A C71A | 3.99e-05 ± 1.6e-05
A15G U30G A64G | 0.00272 ± 0.00073
U30A A42C U45G U65G C70G | 0.000761 ± 0.00026
C34U G51U A64C | < 1e-05
G37A A53G U55G U65G | 8.03e-05 ± 1.8e-05
G37C A42C A48C A64U | < 1e-05
A33C G37U U57A G59U | < 1e-05
C8A G13U U56G A64G | < 1e-05
C8U G37U G62U A64U | < 1e-05
U31G U56C G62A | < 1e-05
C16U U30C C50A | < 1e-05
U55A U56A A64G | 0.0035 ± 0.00087
G9A C16G U69A | < 1e-05
A12C A48G C58G | 4.08e-05 ± 1.8e-05
G32U G38U C67U | < 1e-05
C16U G29U C70G C71A | 7.2e-05 ± 1.7e-05

Variants of: B1
Experiment: self-cleavage kobs at 10000 uM GlcN6P; higher = faster cleavage; RNA array
Conditions: with glucosamine-6-phosphate
Summary of the method: as §1

Variant | self-cleavage kobs at 10000 uM GlcN6P [s⁻¹]
G9A G13U U57C | < 1e-05
A14C U54G C58G C68U | 4.43e-05 ± 2e-05
U31A A52U | 8.67e-05 ± 1.5e-05
G9U A15C C68U | < 1e-05
C11U C16U A53C C68A C70G | < 1e-05
G40A U65C | 0.000296 ± 6.1e-05
